Assays:
[1] = biological target: the molecule itself; experiment: NanoDSF at room temperature, self-association
Excerpt: Only the tryptophan fluorescence from the protein contributes to the signal. If tryptophan is buried or stable, the peak is at 330 nm and if the tryptophan is exposed or flexible, the peak is at 350 nm.

[2] = biological target: the molecule itself; experiment: microscale thermophoresis (MST), self-association; MST
Procedure: Microscale thermophoresis (MST) and nano differential scanning fluorimetry (NanoDSF) were performed to characterize the dimer-monomer transition. MST was used to determine the monomer/dimer equilibrium dissociation constant Kd. MST is based on thermodriven diffusion of molecules while NanoDSF is based on Trp fluorescence and is commonly used for thermostability Tm.

B1: teduglutide (peptide)
peptide: HGDGSFSDEMNTILDNLAARDFINWLIQTKITD
notes: also called Gattex
- Kd [1]: 77 µM
- Kd [2]: 24 µM

Source: patent US20200199192A1 (SHIRE NPS PHARMACEUTICALS, published 2020)
